Measurements as given in patent publication US20240376155A1, “NOVEL COMPOUNDS AND COMPOSITIONS FOR TARGETED THERAPY OF RENAL CANCERS” (SHANGHAI MICURX PHARMACEUTICAL CO., LTD., priority 2021, published 2024).
Where two headings read alike, the source gives them in different places. Bridge positions count the residues as written; N and C are the ends. Square brackets hold non-standard residues; d marks the D form. Peptide text beside a SMILES is read from it. * marks the point of attachment. ξ: configuration not given here. X1 = CNC(=O)c1ccccc1Sc1ccc2c(/C=C/c3ccccn3)nn(C(=O)N(CCNC(=O)[C@@H](N)CCC(=O)O)CCC(=O)*)c2c1; X3 = CNC(=O)c1ccccc1Sc1ccc2c(/C=C/c3ccccn3)nn(C(=O)N(CCOC(=O)[C@@H](N)CCC(=O)O)CCC(=O)*)c2c1; X2 = CNC(=O)c1ccccc1Sc1ccc2c(/C=C/c3ccccn3)nn(C(=O)N(CCNC(=O)CC[C@H](N)C(=O)O)CCC(=O)*)c2c1; Thr(3ξ) = CC(O)[C@H](N)C(=O)O; Dab = NCC[C@H](N)C(=O)O; ξL = CC(C)CC(N)C(=O)O

How the values were obtained:
[1] = for Blood Plasma Conc. of axitinib / Blood Plasma Conc. of released axitinib / Kidney Tissue Conc. of released axitinib: mouse; for Blood Plasma Conc. of axitinib: oral gavage, single dose 30 mg/kg; for axitinib level in kidney tissues vs from axitinib itself: 3 mg/kg compound vs 30 mg/kg oral axitinib; for Blood Plasma Conc. of released axitinib / Kidney Tissue Conc. of released axitinib: injection, single dose 3 mg/kg; for Kidney Tissue Conc. of released axitinib: corrected for kidney tissue density
[2] = axitinib therapy, human use; cited from earlier work
in vivo = conditions: mouse, 3 mg/kg; for level at 3 h: iv
Excerpt: Preferential accumulation of compounds provided herein in kidneys (or near the site of a kidney cancer) may be evaluated by pharmacokinetic (PK) tests, such as in a standard rat PK test.

HK-2 cell line = test: HK-2 cytotoxicity assay; assay type: cell-based, human
Excerpt: The assay is analogously to that described, for example, by Keirstead et al. in Toxicol. Sci. 2014, vol. 137, pp. 278-291.

[3] = 14-days repeat-dose mouse tolerability test; assay type: in vivo; conditions: dose of at least 18 mg/kg/day
[4] = In vitro antibacterial activity (MIC); assay type: cell-based; conditions: relative to polymyxin antibiotics such as polymyxin B and colistin
[5] = test system: luciferase-expressing A498 renal cancer cell line (A498-luc); conditions: 12 mg/kg/day ip vs axitinib at 30 mg/kg/day
Procedure: An illustrative efficacy study for the compounds described herein was investigated in an orthotopic mouse model. In this model, a luciferase-expressing A498 renal cancer cell line (A498-luc) was used. The cancer cells were implanted into a kidney capsule and the tumor growth and effect were monitored by the image size using IVIS Lumina III (Perkin Elmer) and mouse body weight changes. Specifically, mice were anesthetized by SC injection of Zolet™ m 50 (Virbac S. A.) after 24 h fasting. The skin of anesthetized mice was sterilized with iodine followed by alcohol. 4×10^6 luciferase-expressing A498-luc cells were implanted in the left kidney by insulin syringe. The skin incisions were closed with autosuture clip. The tumor growths were monitored by image analysis. […] At 10 mins after the luciferin injection, the mice were imaged (once a week). Living image software (Perkin Elmer) is used to compute regions of interest (ROI) and integrate the total bioluminescence signal in each ROI. Bioluminescent signals (photos/s) from ROI were quantified and used as an indicator of tumor growth and antitumor activity. Body weight of all mice were measured twice a week throughout the study.

**Q.** For `CNC(=O)c1ccccc1Sc1ccc2c(/C=C/c3ccccn3)n[nH]c2c1` [Axitinib, N-methyl-2-[[3-[(E)-2-pyridin-2-ylethenyl]-1H-indazol-6-yl]sulfanyl]benzamide, reference compound], which “Blood Plasma Conc. of axitinib” value ([1]; T = 3 h) is on record?
**A.** T = 3 h: 397.3 ng/mL

**Q.** What about the “Blood Plasma Conc. of axitinib” value ([1]; T = 6 h) of the same molecule?
**A.** T = 6 h: 75.6 ng/mL

**Q.** What about the “Blood Plasma Conc. of axitinib” value ([1]; T = 12 h) of the same molecule?
**A.** T = 12 h: 11.4 ng/mL

**Q.** And the “Blood Plasma Conc. of axitinib” value ([1]; T = 24 h)?
**A.** T = 24 h: BLQ^d

**Q.** And the “incidence of hypertensive adverse effects” value [2]?
**A.** 40-64%

**Q.** For `CNC(=O)c1ccccc1Sc1ccc2c(/C=C/c3ccccn3)nn(C(=O)N(CCNC(=O)[C@@H](N)CCC(=O)O)CCC(=O)N[C@H](C(=O)N[C@@H](CCN)C(=O)N[C@H]3CCNC(=O)[C@H](C(C)O)NC(=O)[C@H](CCN)NC(=O)[C@H](CCN)NC(=O)[C@H](CC(C)C)NC(=O)[C@@H](Cc4ccccc4)NC(=O)[C@H](CCN)NC3=O)C(C)O)c2c1` (stereo partly shown) [Example 1] (X1-[Thr(3ξ)][Dab][Dab][Dab][dF]L[Dab][Dab][Thr(3ξ)]; lactam 3-C), which “Kidney-to-Blood Conc. Ratio” value (in vivo; T = 3 h after injection) is on record?
**A.** 63

**Q.** And the level at 3 h (in vivo; kidney)?
**A.** 563 ng/mL

**Q.** What about the level at 3 h (in vivo; plasma) of the same molecule?
**A.** 9 ng/mL

**Q.** And the “In vitro human HK-2 assay IC50” value (HK-2 cell line; HK-2 immortalized proximal tubule cells from normal human kidney)?
**A.** >100 µg/mL

**Q.** And the “fold less active than axitinib in HK-2 cytotoxicity assay” value (HK-2 cell line; vs axitinib (free drug form))?
**A.** 2-3 fold

**Q.** And the tolerability [3]?
**A.** well-tolerated

**Q.** And the “antibacterial activity (MIC, minimum inhibitory concentration)” value [4]?
**A.** minimized antibacterial activity

**Q.** What about the “axitinib level in kidney tissues vs from axitinib itself” value ([1]; at 3 h) of the same molecule?
**A.** 6.50 fold

**Q.** And the “axitinib level in kidney tissues vs from axitinib itself” value ([1]; at 6 h)?
**A.** about 15 fold

**Q.** What about the “Blood Plasma Conc. of released axitinib” value ([1]; T = 3 h) of the same molecule?
**A.** T = 3 h: 9.7 ng/mL

**Q.** And the “Kidney Tissue Conc. of released axitinib” value ([1]; T = 3 h)?
**A.** T = 3 h: 1955.3 ng/mL

**Q.** What about the “Blood Plasma Conc. of released axitinib” value ([1]; T = 6 h) of the same molecule?
**A.** T = 6 h: 4.0 ng/mL

**Q.** What about the “Kidney Tissue Conc. of released axitinib” value ([1]; T = 6 h) of the same molecule?
**A.** T = 6 h: 1448.5 ng/mL

**Q.** What about the “Blood Plasma Conc. of released axitinib” value ([1]; T = 12 h) of the same molecule?
**A.** T = 12 h: BLQ

**Q.** And the “Kidney Tissue Conc. of released axitinib” value ([1]; T = 12 h)?
**A.** T = 12 h: 1437.9 ng/mL

**Q.** And the “Blood Plasma Conc. of released axitinib” value ([1]; T = 24 h)?
**A.** T = 24 h: BLQ

**Q.** And the “body weight change (loss in weight) during efficacy study” value [5]?
**A.** minimized loss in weight

**Q.** What does the source list for `CNC(=O)c1ccccc1Sc1ccc2c(/C=C/c3ccccn3)nn(C(=O)N(CCNC(=O)[C@@H](N)CCC(=O)O)CCC(=O)N[C@H]3CCNC(=O)[C@H]([C@@H](C)O)NC(=O)[C@H](CCN)NC(=O)[C@H](CCN)NC(=O)C(CC(C)C)NC(=O)[C@@H](Cc4ccccc4)NC(=O)[C@H](CCN)NC3=O)c2c1` (stereo partly shown) [Example 2] (X1-[Dab][Dab][dF][ξL][Dab][Dab]T; lactam 1-C)?
**A.** Blood Plasma Conc. of released axitinib ([1]; T = 3 h): T = 3 h: 3.3 ng/mL; Kidney Tissue Conc. of released axitinib ([1]; T = 3 h): T = 3 h: 5140 ng/mL; Blood Plasma Conc. of released axitinib ([1]; T = 6 h): T = 6 h: BLQ; Kidney Tissue Conc. of released axitinib ([1]; T = 6 h): T = 6 h: 4630 ng/mL

**Q.** Which results are given for `CNC(=O)c1ccccc1Sc1ccc2c(/C=C/c3ccccn3)nn(C(=O)N(CCOC(=O)[C@@H](N)CCC(=O)O)CCC(=O)N[C@H]3CCNC(=O)[C@H]([C@@H](C)O)NC(=O)[C@H](CCN)NC(=O)[C@H](CCN)NC(=O)C(CC(C)C)NC(=O)[C@@H](Cc4ccccc4)NC(=O)[C@H](CCN)NC3=O)c2c1` (stereo partly shown) [Example 7] (X3-[Dab][Dab][dF][ξL][Dab][Dab]T; lactam 1-C)?
**A.** Blood Plasma Conc. of released axitinib ([1]; T = 3 h): T = 3 h: 14.5 ng/mL; Kidney Tissue Conc. of released axitinib ([1]; T = 3 h): T = 3 h: 4280 ng/mL; Blood Plasma Conc. of released axitinib ([1]; T = 6 h): T = 6 h: BLQ; Kidney Tissue Conc. of released axitinib ([1]; T = 6 h): T = 6 h: 4860 ng/mL

**Q.** What does the source list for `CNC(=O)c1ccccc1Sc1ccc2c(/C=C/c3ccccn3)nn(C(=O)N(CCNC(=O)CC[C@H](N)C(=O)O)CCC(=O)N[C@H](C(=O)N[C@@H](CCN)C(=O)N[C@H]3CCNC(=O)[C@H]([C@@H](C)O)NC(=O)[C@H](CCN)NC(=O)[C@H](CCN)NC(=O)[C@H](CC(C)C)NC(=O)[C@@H](Cc4ccccc4)NC(=O)[C@H](CCN)NC3=O)[C@@H](C)O)c2c1` [Example 9, reference compound] (X2-T[Dab][Dab][Dab][dF]L[Dab][Dab]T; lactam 3-C)?
**A.** Blood Plasma Conc. of released axitinib ([1]; T = 3 h): T = 3 h: 14.9 ng/mL; Kidney Tissue Conc. of released axitinib ([1]; T = 3 h): T = 3 h: 371.6 ng/mL; Blood Plasma Conc. of released axitinib ([1]; T = 6 h): T = 6 h: BLQ; Kidney Tissue Conc. of released axitinib ([1]; T = 6 h): T = 6 h: 28.8 ng/mL
